Results on ten molecules are retold here after patent publication US20210347873A1 (SHANGHAI PHARMAEXPLORER, published 2021).

To fix the notation:
T1: human APRIL protein (human, UniProt O75888 105-250, limits assumed)
T1 construct: Bought protein; also called recombinant APRIL protein
T1 sequence (looked up): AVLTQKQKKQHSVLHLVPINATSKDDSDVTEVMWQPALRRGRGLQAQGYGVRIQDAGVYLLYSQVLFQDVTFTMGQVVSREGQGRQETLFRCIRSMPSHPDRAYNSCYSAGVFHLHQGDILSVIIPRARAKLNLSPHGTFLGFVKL

B1: 2-1G11 (antibody, V domains shown)
VH: EVQLVESRGGVVQPGRSLRLSCAASGFTFSSYGMHWVRQAPGKGLEWVAVISYDGSNKYYADSVKGRFTISRDNSKNTLYLQMNSLRAEDAAVYYCARDRVDILTGYSIYGMDVWGQGTTVTVSS
VL: EIVMTQSPATLSLSPGERATLSCRASQSVSSYLAWYQQKPGQAPRLLIYDASKRATGIPARFSGSGSGTDFTLTISSLEPEDFAVYYCQQRSNWPLTFGGGTKVEIK
notes: From a human naive scFv phage library; also called human BLyS antibody 2-1G11
B2: L9G7 (antibody, V domains shown)
VH: QIQLVQSGAEVKKPGASVKVSCKASGYTFTSYGISWVRQAPGQGLEWMGWISAYNGNTNYAQKLQGRVTMTTDTSTSTAYMELRSLRSDDTAVYYCARTYYDILTGYYYYGMDVWGQGTTVTVSS
VL: EIVLTQSPGTLSLSPGERATLSCRTSQSVDTYLAWYQQKPGQAPRLLIYDASNRATGIPARFSGSGSGTDFTLTISSLEPEDFAVYYCQQRSNWPLTFGGGTKVEIK
notes: From a human naive scFv phage library; also called human BLyS antibody L9G7
B3: L1D12 (antibody, V domains shown)
VH: QVQLVQSGGGLVQPGGSLRLSCAASGFTVSSNYMSWVRQAPGKGLEWVSVIYSGGSTYYADSVKGRFTISRDNSKNTLYLQMNSLRAEDTAVYYCARGFHDILTGYGMDVWGQGTTVTVSS
VL: SSELTQDPAVSVALGQTVRITCQGDSLRNYYAGWYQQKPGQAPVLVIYGKNNRPSGIPDRFSGSSSGNTASLTITGTQAEDEADYYCSSRDNSGTHLVEFGGGTKLTVL
notes: From a human naive scFv phage library; also called human BLyS antibody L1D12; LID12
B4: 97A3C2H4 (antibody, V domains shown)
VH: EVKLVESGGGLVQPGGSLKLSCAASGFTFSTYTMSWVRQTPEKRLEWVAYISYGGGSTSYPDTVKGRFTISRDNAKNTLYLQMSSLKSEDTAIYYCTRHVTVVENSMDYWGQGTSVTVSS
VL: DILLTQSPDILSVSPGERVSFSCRASQSIGTSIHWYQQRTNGSPRLLIKYVSESFSGTPSRFSGSGSGTAFTLTINSVESEDIADYYCQQTHSWPWTFGGGTKLEIK
notes: Mouse hybridoma monoclonal antibody purified on Protein G
B5: 8E7D9C7F5 (antibody, V domains shown)
VH: QVQLQQSGVELARPGASVKLSCKASGYTFTSYGISWVKQRTGQALEWIGEIYPRSGNTYYNEKFKGKATLTADKSSSTAYMELRSLTSEDSAVYFCARSGPITTLVATDYGMDYWGQGTSVTVSS
VL: DIVLTQSPASLAVSLGQRATISCRASKSVSTSSYSYMHWYQQKPGQPPKLLIKFASNLESGVPARFSGSGSGTDFTLNIHPVEEEDAATYYCQHSREFPYTFGGGTKLEIK
notes: as for B4
B6: 111D10D6G3 (antibody, V domains shown)
VH: QVQLQQPGAELVKPGASVKMSCKASGYTFTRHWITWVKQRPGQGLEWIGDIFPGSGSINYNEKFKSEATLTVEKSSSTAYMQLSSLTSEDSAVYYCARGDVDVWGTGTTVTVSS
VL: DIQMTQSPSSLSASLGERVSLTCRASQEIRGYLSWLQQKPNGTIKRLIYAASTLDSGVPKRFSATRSGSDFSLTISSLESEDFADYYCLQYASYPFTFGSGTKLEIK
notes: as for B4
B7: L9G7 (antibody, human IgG1, V domains shown)
VH: QIQLVQSGAEVKKPGASVKVSCKASGYTFTSYGISWVRQAPGQGLEWMGWISAYNGNTNYAQKLQGRVTMTTDTSTSTAYMELRSLRSDDTAVYYCARTYYDILTGYYYYGMDVWGQGTTVTVSS
VL: EIVLTQSPGTLSLSPGERATLSCRTSQSVDTYLAWYQQKPGQAPRLLIYDASNRATGIPARFSGSGSGTDFTLTISSLEPEDFAVYYCQQRSNWPLTFGGGTKVEIK
B8: L1D12 (antibody, human IgG1, V domains shown)
VH: QVQLVQSGGGLVQPGGSLRLSCAASGFTVSSNYMSWVRQAPGKGLEWVSVIYSGGSTYYADSVKGRFTISRDNSKNTLYLQMNSLRAEDTAVYYCARGFHDILTGYGMDVWGQGTTVTVSS
VL: SSELTQDPAVSVALGQTVRITCQGDSLRNYYAGWYQQKPGQAPVLVIYGKNNRPSGIPDRFSGSSSGNTASLTITGTQAEDEADYYCSSRDNSGTHLVEFGGGTKLTVL
notes: also called LID12
B9: 97A3C2H4 (antibody, V domains shown)
VH: EVKLVESGGGLVQPGGSLKLSCAASGFTFSTYTMSWVRQTPEKRLEWVAYISYGGGSTSYPDTVKGRFTISRDNAKNTLYLQMSSLKSEDTAIYYCTRHVTVVENSMDYWGQGTSVTVSS
VL: DILLTQSPDILSVSPGERVSFSCRASQSIGTSIHWYQQRTNGSPRLLIKYVSESFSGTPSRFSGSGSGTAFTLTINSVESEDIADYYCQQTHSWPWTFGGGTKLEIK
notes: Mouse hybridoma antibody purified on Protein G
B10: 111D10D6G3 (antibody, V domains shown)
VH: QVQLQQPGAELVKPGASVKMSCKASGYTFTRHWITWVKQRPGQGLEWIGDIFPGSGSINYNEKFKSEATLTVEKSSSTAYMQLSSLTSEDSAVYYCARGDVDVWGTGTTVTVSS
VL: DIQMTQSPSSLSASLGERVSLTCRASQEIRGYLSWLQQKPNGTIKRLIYAASTLDSGVPKRFSATRSGSDFSLTISSLESEDFADYYCLQYASYPFTFGSGTKLEIK
notes: as for B9

The target in the first experiment is T2, biotinylated hBLyS-ECD (human, UniProt Q9Y275 134-285, biotinylated with Biotin-X-X-NHS (molar ratio 7:1); sites not stated).
T2 construct: also called biotinylated immunogen; BLyS protein
T2 sequence (Q9Y275 134-285): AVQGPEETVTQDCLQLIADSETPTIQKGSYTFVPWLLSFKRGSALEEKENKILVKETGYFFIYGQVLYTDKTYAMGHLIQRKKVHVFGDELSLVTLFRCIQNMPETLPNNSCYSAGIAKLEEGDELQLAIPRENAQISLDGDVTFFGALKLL
The experiment can be described thus: competitive ELISA on biotinylated hBLyS-ECD; competitor L9G7. How it is done: The purified human BLyS antibody and hybridoma antibody were subjected to competitive enzyme-linked immunosorbent assay and the epitopes binding by different antibodies were analyzed.
Purified BLyS antibody was first diluted to a final concentration of 1.0 μg/mL with PBS, then aliquoted into a 96-well ELISA plate at 50 μL per well, and the plate was subsequently sealed with plastic film and incubated at 4° C. overnight. On the next day the plate was rinsed four times with the plate washing buffer [PBS buffer containing 0.05% (v/v) Tween20] and mixed with blocking solution [PBS buffer containing 0.05% (v/v) Tween20 and 1% (w/w) BSA], and then blocked at 37° C. for 1 hour. The blocking solution was removed, and the competitive antibody and IgG control were diluted to a final concentration of 40 μg/mL with PBS and then aliquoted into the 96-well ELISA plate at 50 μL per well. The biotinylated hBLyS-ECD was then diluted with PBS to a final concentration of 2 ng/mL and pipetted into the 96-well ELISA plate at 50 μL per well. The final concentration of competitive antibody and hBLyS-ECD was 20 μg/mL and 1 ng/mL, respectively. After incubation at 37° C. for 1 hour, the plate was rinsed four times with the plate washing buffer [PBS buffer containing 0.05% (v/v) Tween20]. 100 μL per well of HRP-labeled (horseradish peroxidase) streptavidin (purchased from Sigma) was added into the plate and the plate was incubated at 37° C. for 1 hour. The plate was then washed four times with the plate washing buffer [PBS buffer containing 0.05% (v/v) Tween20]. 100 μL of TMB substrate was aliquoted into each well and after incubation at room temperature for 5 minutes, 100 μL of stop solution (1.0 N HCl) was aliquoted into each well. A₄₅₀ₙₘ values were read by an ELISA plate reader (SpectraMax M5e, purchased from Molecular Device) and the results were shown in Tables 18A-18B. […] The data shown in the table is the inhibitory rate (%) of the binding level of the original antibody to hBLyS-ECD after addition of the competitive antibody.
(In general: ELISA stands for enzyme-linked immunosorbent assay.)
Consider B1, for which the “inhibitory rate (%)” value is 79%.

On to B2, for which the “inhibitory rate (%)” value is 95%.

In the case of B3, the “inhibitory rate (%)” value worked out at 90%.

For a further experiment, the target named is T2, biotinylated hBLyS-ECD. The experiment can be described thus: blocking ELISA: biotinylated hBLyS-ECD on coated BAFF R, antibody 0.0064 nM. How it is done: BLyS antibody blocking the binding of the BLyS protein to its receptor BAFF R was detected by the receptor-ligand binding assay of BLyS protein.
BAFF R (purchased from R & D Systems) was aliquoted into 96-well ELISA plate at 50 ng per well, and the plate was sealed with plastic film and incubated overnight at 4° C. On the next day the plate was washed four times with the plate washing buffer [PBS buffer containing 0.05% (v/v) Tween20] and added with blocking solution [PBS buffer containing 0.05% (v/v) Tween20 and 1% (w/w) BSA], then blocked for 1 hour at room temperature. The blocking solution was removed and 50 μL per well of the lead antibodies prepared in Embodiment 1 and 2 were added followed by the addition of 50 μL per well of the biotinylated hBLyS-ECD prepared in Embodiment 2. After incubation for 1 hour at 37° C., the plate was washed four times with the plate washing buffer [PBS buffer containing 0.05% (v/v) Tween20]. 100 μL per well of HRP-labeled (horseradish peroxidase) avidin (purchased from Sigma) was added and incubated at 37° C. for 1 hour. The plate was then washed four times with the plate washing buffer [PBS buffer containing 0.05% (v/v) Tween20]. 100 μL of TMB substrate was aliquoted into each well and after incubation for 5 minutes at room temperature, then 100 μL of stop solution (1.0 N HCl) was aliquoted into each well. A₄₅₀ₙₘ values were read with an ELISA plate reader (SpectraMax 384plus, Molecular Device) and the results were shown in FIGS. 9A-9B and Table 15. It was shown in Table 15 that the binding of BLyS protein to its receptor BAFF R could be blocked by the BLyS antibody.
For B4, the OD450 nm is 1.21 OD450 nm.

Consider B5, for which the OD450 nm worked out at 1.38 OD450 nm.

B6: the OD450 nm is 1.29 OD450 nm.

The next experiment addresses T1, human APRIL protein. Briefly: ELISA: APRIL coated at 1.0 µg/mL, antibody titrated, HRP secondary antibody. How it is done:
To test whether the BLyS antibody cross-reacted with human APRIL protein, APRIL protein (purchased from R & D Systems) was first diluted to a final concentration of 1.0 μg/mL with PBS, and then 50 μL of which per well was aliquoted into a 96-well ELISA plate, and the plate was subsequently sealed with plastic film and incubated at 4° C. overnight. On the next day the plate was rinsed four times with the plate washing buffer [PBS buffer containing 0.0500 (v/v) Tween20] and a blocking solution [PBS buffer containing 0.05 (v/v) Tween20 and 1 (w/w) BSA] was added, then the protein was blocked at 37° C. for 2 hours. The blocking solution was removed and 100 μL per well of the lead antibodies prepared in Embodiment 1 and 2 were added in. After incubation for 1 hour at 37° C., the plate was rinsed four times with the plate washing buffer [PBS buffer containing 0.05 (v/v) Tween20]. HRP-labeled (horseradish peroxidase) secondary antibody (purchased from Sigma) was added in and incubated at 37° C. for 1 hour. The plate was then rinsed four times with the plate washing buffer [PBS buffer containing 0.050 (v/v) Tween20]. 100 μL of TMB substrate was aliquoted into each well and after incubation at room temperature for 5 minutes, 100 μL of stop solution (1.0 N HCl) was aliquoted into each well. A₄₅₀ₙₘ values were read via an ELISA plate reader (SpectraMax M5e purchased from Molecular Devices) and the results were shown in FIGS. 6A-6B and Table 11. […] As used herein, the IgG control is human IgG and the data in the table is GD number at 450 nm.
As for B7, the binding result was “no binding (tested: 66.7 nM)”.

In the case of B8, the binding result was “no binding (tested: 66.7 nM)”.

For B9, the binding result is on record as “no binding (tested: 66.7 nM)”.

In the case of B10, the binding result is listed as “no binding (tested: 66.7 nM)”.
